From patent US6645501B2, “Anti-pathogen system and methods of use thereof” (Washington University, priority 1997, dated 2003)

Legend:
Type in all cases: cell-based
[1] = test system: HIV-infected (NLHX strain) and uninfected Jurkat T-cells; experiment: FACS analysis of transduction and retention of fusion proteins in HIV-infected and uninfected Jurkat T-cells; conditions: about 35 to 45 nanomoler, about 30 minutes, HIV (NLHX) infected Jurkat culture
Protocol: To see if p16 fusion proteins could remain in the cell cytosol of the HIV infected cells, the TAT-HIV1,2 p16 fusion proteins produced in Example 3 were purified and labeled with FITC as described above. About 35 to 45 nanomoler of the labeled fusion protein was then added to HIV-infected (NLHX strain) and uninfected Jurkat T-cells in accordance with Example 6 below. The transduced Jurkat T-cells were then analyzed by FACS. All (100%) of cells in a mixed population of HIV infected/uninfected cells were transduced with the p16 protein at 1, 2, 4, 8 and 16 hours post-addition of the FITC conjugated fusion protein. However, when the cells were washed in fresh media and the PTD has driven out of the cells due to the concentration gradient (now high inside and 0 outside), the infected cells retained the cleaved substrate (the p16 portion) but uninfected controls lost all of the transduced protein (it transduced out) as determined by the continued presence of FITC-labeled p16 as analyzed by FACS.
About 5×10^6 Jurkat T-cells were infected by HIV (strain NLHX; about 1×10^5 to 1×10^6 infectious virus per ml). The cells were propagated in RPMI media. Approximately 4 to 7 days after the infection, the media was removed from the plates and about 35 to 45 nanomoler of the TAT-CPP32 fusion protein was added to the cells. […]

[2] = test system: Jurkat T-cells infected by HIV (strain NLHX); experiment: Killing of HIV-infected Jurkat T-cells, trypan blue exclusion and microscopy; conditions: about 18 hours post-transduction
Protocol: About 5×10^6 Jurkat T-cells were infected by HIV (strain NLHX; about 1×10^5 to 1×10^6 infectious virus per ml). The cells were propagated in RPMI media. Approximately 4 to 7 days after the infection, the media was removed from the plates and about 35 to 45 nanomoler of the TAT-CPP32 fusion protein was added to the cells. The cells were incubated with the fusion proteins for about 30 minutes to allow transduction into the cells. […] Subsequently, media was added back to the plates and after about 18 hours post-transduction, the cells were examined for cell killing using conventional trypan blue exclusion and microscopy.
Briefly, cells were infected and transduced as described in Example 6 above. Following the transduction, about 1 μg/ml Ritonavir was added to the cell media and allowed to incubate with the cells for about 18 hours. The cells were then assayed for cell killing by conventional trypan blue exclusion and microscopy. […]

[3] = test system: Jurkat T cells; experiment: Co-transduction of uninfected Jurkat T cells with TAT-CPP32 and TAT-Protease, survival by trypan-blue exclusionary dye microscopy; conditions: 50-100 nM, uninfected Jurkat T cells, 18 hr post-addition
Protocol: To test for activation of the TAT-CPP32 by TAT-Protease, 2×10^6 Jurkat T cells were placed in 2 ml of culture (RPMI media). To these cells, various combinations of control and experimental transducible proteins were added in 50-100 nM ranges, as follows:
The cells were assayed for survival at 18 hr post-addition by trypan-blue exclusionary dye microscopy. […] Thus, activation of TAT-CPP32 requires the presence of HIV protease.

B1: TAT-CPP32: HIS-TAT-PTD-HIV2-large subunit of CPP32-HIV1-small subunit of CPP32 fusion protein (protein)
chain: GRKKRRQRRRGYPYDVPDYACTERQANFLGKIWPGISLDNSYKMDYPEMGLCIIINNKNFHKSTGMTSRSGTDVDAANLRETFRNLKYEVRNKNDLTREEIVELMRDVSKEDHSKRSSFVCVLLSHGEEGIIFGTNGPVDLKKITNFFRGDRCRSLTGKPKLFIIQACRGTELDCGIETSQVSQNYPIVQNLQGVDDDMACHKIPVEADFLYAYSTAPGYYSWRNSKDGSWFIQSLCAMLKQYADKLEFMHILTRVNRKVATEFESFSFDATFHAKKQIPCIVSMLTKELYFYH
modifications: left off: small tags and cut ends
notes: HIS-TAT-PTD-HIV2-large subunit of CPP32-HIV1-small subunit of CPP32 fusion protein
cells transduced by the fusion protein [1]: about 100%
killing of HIV-infected cells ([2]; about 35 to 45 nanomoler): about all of the infected cells were killed
killing of uninfected cells in the population [2]: does not kill
cytotoxicity when added alone [3]: minimal cytotoxicity
loss of viable cells when added plus TAT-Protease [3]: substantial loss of viable cells
